In patent EP4631972A1, “SITE-SPECIFIC COUPLED PEGYLATED INTERLEUKIN-2 MUTANT WITH RECEPTOR AFFINITY PREFERENCE AND USE THEREOF” (priority 2022, dated 2024):

T1: IL-2αβγ triple receptor (Homo sapiens, UniProt P01589+P14784+P31785)
T1 construct: Uniprot P01589 1Met-551Ile constructed into plasmid pcDNA3.1/zeo; Uniprot P14784 1Met-551Val constructed into plasmid pcDNA3.1(+); Uniprot P31785 1Met-551Thr was constructed into plasmid pcDNA3.1/zeo; expressed in transfected cells; host or cells: 293EC18 cells, transient co-transfection with pCMV/JAK3 and PGL4.52/STAT5RE
T1 sequence (P01589 22-272): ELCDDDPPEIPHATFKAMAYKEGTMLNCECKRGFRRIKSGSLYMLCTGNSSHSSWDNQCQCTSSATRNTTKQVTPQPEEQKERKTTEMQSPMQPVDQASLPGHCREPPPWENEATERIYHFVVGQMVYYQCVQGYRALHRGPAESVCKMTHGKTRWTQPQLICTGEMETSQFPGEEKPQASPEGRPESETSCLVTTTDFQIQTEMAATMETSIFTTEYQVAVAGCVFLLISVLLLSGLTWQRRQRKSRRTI
T1 sequence (P14784 27-551): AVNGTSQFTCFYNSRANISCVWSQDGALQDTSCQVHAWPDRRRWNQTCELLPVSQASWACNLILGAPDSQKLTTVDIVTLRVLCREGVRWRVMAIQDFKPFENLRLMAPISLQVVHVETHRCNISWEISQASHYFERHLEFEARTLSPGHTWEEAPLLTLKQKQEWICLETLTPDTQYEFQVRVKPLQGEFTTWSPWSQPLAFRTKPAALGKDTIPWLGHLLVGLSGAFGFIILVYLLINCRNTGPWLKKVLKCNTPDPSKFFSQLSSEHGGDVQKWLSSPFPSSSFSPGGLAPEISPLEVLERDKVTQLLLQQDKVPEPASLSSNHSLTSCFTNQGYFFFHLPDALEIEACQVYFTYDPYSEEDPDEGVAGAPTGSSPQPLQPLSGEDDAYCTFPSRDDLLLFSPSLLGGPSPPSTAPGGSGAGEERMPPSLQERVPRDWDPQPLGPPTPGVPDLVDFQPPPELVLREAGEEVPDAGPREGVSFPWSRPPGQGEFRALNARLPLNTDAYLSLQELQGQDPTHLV
T1 sequence (P31785 23-369): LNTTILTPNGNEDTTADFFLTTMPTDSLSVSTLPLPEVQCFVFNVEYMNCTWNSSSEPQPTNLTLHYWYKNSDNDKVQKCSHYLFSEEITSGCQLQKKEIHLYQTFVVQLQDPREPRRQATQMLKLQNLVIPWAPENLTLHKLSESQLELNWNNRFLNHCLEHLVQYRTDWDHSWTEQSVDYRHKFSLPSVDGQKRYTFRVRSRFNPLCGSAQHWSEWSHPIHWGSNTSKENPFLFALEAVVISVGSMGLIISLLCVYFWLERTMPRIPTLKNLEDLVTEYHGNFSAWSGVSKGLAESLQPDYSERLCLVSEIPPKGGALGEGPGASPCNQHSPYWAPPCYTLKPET

T2: IL-2βγ dual receptor (Homo sapiens, UniProt P14784+P31785)
T2 construct: Uniprot P14784 1Met-551Val was constructed into plasmid pcDNA3.1(+); Uniprot P31785 1Met-551Thr was constructed into plasmid pcDNA3.1/zeo; expressed in transfected cells; host or cells: 293EC18 cells, transient co-transfection with pCMV/JAK3 and PGL4.52/STAT5RE
T2 sequence (P14784 27-551): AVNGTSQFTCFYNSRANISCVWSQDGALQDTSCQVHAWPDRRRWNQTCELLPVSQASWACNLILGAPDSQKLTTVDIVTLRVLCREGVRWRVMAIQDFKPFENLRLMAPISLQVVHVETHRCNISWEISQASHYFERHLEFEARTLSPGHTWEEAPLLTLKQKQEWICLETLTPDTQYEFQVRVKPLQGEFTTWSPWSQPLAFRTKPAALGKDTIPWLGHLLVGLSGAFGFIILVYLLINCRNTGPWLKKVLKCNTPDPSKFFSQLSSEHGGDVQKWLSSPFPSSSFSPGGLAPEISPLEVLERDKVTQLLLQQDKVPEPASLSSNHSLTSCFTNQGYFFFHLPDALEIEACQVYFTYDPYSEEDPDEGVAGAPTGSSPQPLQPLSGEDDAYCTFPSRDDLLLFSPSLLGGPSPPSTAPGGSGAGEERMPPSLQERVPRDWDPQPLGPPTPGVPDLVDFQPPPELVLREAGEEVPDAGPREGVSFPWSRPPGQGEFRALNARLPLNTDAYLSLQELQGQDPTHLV
T2 sequence (P31785 23-369): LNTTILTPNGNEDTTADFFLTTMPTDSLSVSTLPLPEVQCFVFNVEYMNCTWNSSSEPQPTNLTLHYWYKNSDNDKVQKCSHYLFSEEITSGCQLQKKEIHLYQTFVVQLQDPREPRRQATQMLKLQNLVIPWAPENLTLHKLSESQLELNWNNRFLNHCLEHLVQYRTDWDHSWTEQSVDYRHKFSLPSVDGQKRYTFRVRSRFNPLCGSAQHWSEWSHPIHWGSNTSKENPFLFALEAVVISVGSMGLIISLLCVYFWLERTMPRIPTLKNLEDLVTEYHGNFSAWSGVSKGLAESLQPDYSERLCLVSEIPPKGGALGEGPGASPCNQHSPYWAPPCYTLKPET


Key:
IL-2αβγ triple receptor = molecular target: T1, IL-2αβγ triple receptor; test: STAT5 reporter gene assay, activation of IL-2αβγ triple receptor in 293EC18/αβγ/JAK3/STAT5 cells; assay type: cell-based; conditions: Example 3, Table 2 and Figure 3
Method: (§1) Since the binding of IL-2 to the β and γ subunits of its receptor induces STAT5 phosphorylation, which subsequently leads to dimerization and translocation into the nucleus to promote target gene transcription, this example evaluates the ability of the mutant IL-2 polypeptides to induce signaling through the IL-2 receptor by measuring STAT5 phosphorylation.
Adherent 293EC18 cells were cultured to about 90% confluence using conventional methods. After trypsin digestion, the cells were resuspended in cell culture medium to 4×10^5 cells/ml and 50 µl/well were added to two 96-well cell culture plates. After incubation at 37°C for 48 h, the supernatant was aspirated and fresh culture medium was added. […]
Each IL2 mutant was diluted 4-fold in a gradient manner using PBS buffer, with a total of 11 dilutions and a starting concentration of 65.2 nM. […] Bio-Lite Luciferase Assay System reagents that have been mixed and equilibrated to room temperature were added to the cell culture plates to be tested at 100 µl/well, placed on a microplate shaker at 450 rpm to mix for 2 minutes, then allowed to stand at room temperature for 3 minutes, and the chemiluminescence value was detected with an enzyme plate reader.
(§2) The logarithm of the final concentration of each IL-2 mutant sample was used as the X-axis, and the chemiluminescence detection results were used as the Y-axis for plotting. Data were analyzed using the four-parameter logistic regression model in GraphPad Prism 9. Table 2 EC50 values for the activation of the IL-2αβγ triple receptor by PEG-IL-2 mutants as determined by a reporter gene assay.
According to the method of Example 3, each polyethylene glycol-modified mutant obtained in this example was assessed for the binding preference to the IL2 receptors by a reporter assay. Table 4 EC50 values for the activation of the IL-2αβγ triple receptor by PEG-IL-2 mutants as determined by a reporter gene assay. […]

IL-2βγ dual receptor = molecular target: T2, IL-2βγ dual receptor; test: STAT5 reporter gene assay, activation of IL-2βγ dual receptor in 293EC18/βγ/JAK3/STAT5 cells; assay type: cell-based
Method: as §1
Adherent 293EC18 cells were cultured to about 90% confluence using conventional methods. After trypsin digestion, the cells were resuspended in cell culture medium to 4×10^5 cells/ml and 50 µl/well were added to two 96-well cell culture plates. After incubation at 37°C for 48 h, the supernatant was aspirated and fresh culture medium was added. According to the manufacturer's method, four plasmids, pcDNA3.1(+)/CD122 (constructed by Nanjing Novoacine Biotechnology Co., Ltd, Uniprot P14784 1Met-551Val was constructed into plasmid pcDNA3.1(+)), pcDNA3.1/puro/CD132 (constructed by Nanjing Novoacine Biotechnology Co., Ltd, Uniprot P31785 1Met-551Thr was constructed into plasmid pcDNA3.1/zeo), pCMV/JAK3 (Sino Biological), and PGL4.52/STAT5RE (Promega) were transiently transfected into 293EC18 cells using a cationic transfection reagent (ExFect Transfection Reagent, Vazyme). The obtained cells were named 293EC18/βγ/JAK3/STAT5 cells. Alternatively, five plasmids, pcDNA3.1/zeo/CD25 (constructed by Nanjing Novoacine Biotechnology Co., Ltd, Uniprot P01589 1Met-551Ile constructed into plasmid pcDNA3.1/zeo), pcDNA3.1(+)/CD122 (constructed by Nanjing Novoacine Biotechnology Co., Ltd, Uniprot P14784 1Met-551Val constructed into plasmid pcDNA3.1(+)), pcDNA3.1/puro/CD132 (constructed by Nanjing Novoacine Biotechnology Co., Ltd, UniprotP31785 1Met-551Thr constructed into plasmid pcDNA3.1/zeo), pCMV/JAK3 (Sino Biological), and PGL4.52/STAT5RE (Promega) were transiently transferred into 293EC18 cells, and the obtained cells were named 293EC18/αβγ/JAK3/STAT5 cells. The transfected cells were incubated at 37°C and 5% CO2 for another 6 h.
Each IL2 mutant was diluted 4-fold in a gradient manner using PBS buffer, with a total of 11 dilutions and a starting concentration of 65.2 nM. In the above cell culture plates, 50 µl/well of each of the serially diluted IL2 mutant samples was added in duplicate. Then, the cell culture plate was placed in an incubator at 37°C and 5% CO2 for overnight culture. The cell culture plates were kept at room temperature for 20 ± 5 minutes to equilibrate the plates to room temperature. Bio-Lite Luciferase Assay System reagents that have been mixed and equilibrated to room temperature were added to the cell culture plates to be tested at 100 µl/well, placed on a microplate shaker at 450 rpm to mix for 2 minutes, then allowed to stand at room temperature for 3 minutes, and the chemiluminescence value was detected with an enzyme plate reader.
as §2
According to the method of Example 3, each polyethylene glycol-modified mutant obtained in this example was assessed for the binding preference to the IL2 receptors by a reporter assay. Table 4 EC50 values for the activation of the IL-2αβγ triple receptor by PEG-IL-2 mutants as determined by a reporter gene assay.
Referring to Example 3, the phosphorylation of STAT5 was used to evaluate the ability of the PEG-modified IL-2 mutants having a non-natural amino acid mutation prepared in Example 14 to induce signal transduction via the IL-2 receptor. […]

Molecule	activation of the IL-2Rαβγ triple receptor compared with the control IL2-N88R (IL-2αβγ triple receptor)	activation effect on the IL-2Rβγ dual receptor compared with control IL-2 N88R (IL-2βγ dual receptor; Figure 1, concentration of 65.2 nM)	activation effect on / affinity to IL-2Rβγ dual receptor compared with control IL-2 N88R (IL-2βγ dual receptor; Figure 2, all concentrations)
80k-1PEG-IL2-D84C: IL-2 (C125S) mutant D84C with one 80k PEG-maleimide conjugated to cysteine 84	even stronger activation		
80k-1PEG-IL2-N88R-N33C: IL-2 mutant N88R, N33C with one 80k PEG conjugated to cysteine 33 (conjugate) APTSSSTKKTQLQLEHLLLDLQMILNGINNYKC(PEG 80 kDa)PKLTRMLTFKFYMPKKATELKHLQCLEEELKPLEEVLNLAQSKNFHLRPRDLISRINVIVLELKGSETTFMCEYADETATIVEFLNRWITFSQSIISTLT	even stronger activation	lower activation effects	further reduced the affinity to IL-2Rβγ
